Sequences and labels used below:
T1: recombinant human KAAG1 (Kidney associated antigen 1) (human, UniProt Q9UBP8 1-84)
T1 construct: also called KAAG1 protein
T1 sequence: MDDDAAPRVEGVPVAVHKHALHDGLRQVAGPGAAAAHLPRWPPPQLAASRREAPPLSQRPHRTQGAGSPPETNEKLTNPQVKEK

B1: chimeric 3A4 anti-KAAG1 antibody (mouse variable regions, human IgG1/kappa constant regions) (antibody, V domains shown)
VH: QIQLVQSGPEMVKPGASVKMSCKASGYTFTDDYMSWVKQSHGKSLEWIGDINPYNGDTNYNQKFKGKAILTVDKSSSTAYMQLNSLTSEDSAVYYCARDPGAMDYWGQGTSVTVSS
VL: DVVMTQTPLSLAVSLGDQASISCRSSQSLLHSNGNTYLEWYLQKPGQSPKLLIHTVSNRFSGVPDRFSGSGSGTDFTLKISRVEAEDLGVYYCFQGSHVPLTFGAGTRLELKR
notes: It is treated here as the same molecule; also called LcHc; murine 3A4 (LcHc)
B2: 3A2 anti-KAAG1 antibody (antibody, V domains shown)
VH: EIQLQQSGPELVKPGASVKMSCKTSGYTFTDYNMHWVKQKPGQGLEWIGYINPYNDVTEYNEKFKGRATLTSDKSSSTAYMDLSSLTSDDSAVYFCAWFGLRQWGQGTLVTVST
VL: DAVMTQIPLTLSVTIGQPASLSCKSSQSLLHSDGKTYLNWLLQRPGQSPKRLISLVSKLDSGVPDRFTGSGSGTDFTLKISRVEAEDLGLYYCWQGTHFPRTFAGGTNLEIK
notes: Variable regions only; Isolated from a Fab library
B3: 3F6 anti-KAAG1 antibody (antibody, V domains shown)
VH: EVQLQQSGPELVKPGASVKMSCKASGYIFTEYNIHWVKQKPGQGPEWIGNINPYNDVTEYNEKFKGKATLTSDKASSTAYMDLSSLTSEDSAVYYCARWGLRNWGQGTLVTVSA
VL: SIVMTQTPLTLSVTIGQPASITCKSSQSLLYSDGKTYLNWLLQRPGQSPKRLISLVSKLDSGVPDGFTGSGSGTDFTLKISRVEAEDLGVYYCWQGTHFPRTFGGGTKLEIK
notes: as for B2
B4: 3E8 anti-KAAG1 antibody (antibody, V domains shown)
VH: EVQLQQSVPELVKPGASVKMSCKTSGYTFTEYNMHWVKQKPGQGPEWIGNINPYNNVTEYNEKFKGKATLTSDKSSSTAYLDLSSLTSEDSAVYYCARWGLRNWGQGTLVTVSA
VL: not shown
notes: as for B2
B5: 3D1 anti-KAAG1 antibody (antibody, V domains shown)
VH: EVQLQESGPDLVKPSQSLSLTCTVTGFSITSGYGWHWIRQFPGDKLEWMGYISFNGDYNYNPSLKSRISITRDTSKNQFFLQLSSVTTEDTATYYCASSYDGLFAYWGQGTLVTVSA
VL: DIKMTQSPSSMYASLGERVTITCKASQDIHTYLNWFQQKPGKSPETLIYRANRLVDGVPSRFSGSGSGQDYSLTISSLEYEDMGIYYCLQYDEFPLTFGAGTKLELK
notes: as for B2
B6: 3C4 anti-KAAG1 antibody (antibody, V domains shown)
VH: EVQLQESGPDLVKPSQSLSLTCTVTGFSITSGYGWHWIRQFPGNKLEWMGYINYDGHNDYNPSLKSRISITQDTSKNQFFLQLNSVTTEDTATYYCASSYDGLFAYWGQGTLVTVSA
VL: DIVMSQSPSSMYASLGERVTITCKASQDIHNFLNWFQQKPGKSPKTLIFRANRLVDGVPSRFSGSGSGQDYSLTISSLEFEDLGIYSCLQYDEIPLTFGAGTKLELR
B7: 3C2 anti-KAAG1 antibody (antibody, V domains shown)
VH: DVQLQESGPDLVKPSQSLSLTCTVTGFSITSGYGWHWIRQFPGNKLEWMGYISFNGDSNYNPSLKSRISITRDTSKNQFFLQLNSVTSEDTATYYCASSYDGLFAYWGQGPLVTVSA
VL: DIQMTQSPSSMYASLGERVTLTCKASQDIHNYLNWFQQKPGKSPKTLIHRANRLVAGVPSRFSGSGSGQDYSLTISSLEYEDLGIYYCLQYDAFPLTFGAGTKLELK
notes: as for B2
B8: 3D3 anti-KAAG1 antibody (antibody, V domains shown)
VH: EVQLQQSVAELVRPGASVTLSCKASGYIFTDYEIHWVKQTPVHGLEWIGVIDPETGNTAFNQKFKGKATLTADISSSTAYMELSSLTSEDSAVYYCMGYSDYWGQGTTLTVSS
VL: DIVMTQSPSSLAVSIGQKVTMNCKSSQSLLNSNFQKNFLAWYQQKPGQSPKLLIYFASTRESSIPDRFIGSGSGTDFTLTISSVQAEDLADYFCQQHYSTPLTFGAGTKLELK
B9: 3G12 anti-KAAG1 antibody (antibody, V domains shown)
VH: EVQLQQSVAELVRPGASVTVSCKASGYIFTDYEIHWVKQTPAHGLEWIGVIDPETGNTAFNQKFKGKATLTADISSSTAYMELSSLTSEDSAVYYCMGYSDYWGQGTTLTVSS
VL: DIVMTQSPKFMSTSVGDRVSITCKASQDVGTAVAWYQQKPGQSPELLIYWTSTRHTGVPDRFSGSGSGTDFTLTISSVQAEDLADYFCQQHYSIPLTFGAGTKLELR
notes: as for B2
B10: 3F7 anti-KAAG1 antibody (antibody, V domains shown)
VH: QAYLQQSGAELVRPGASVTLSCKASGYTFTDYEIHWVKQTPVHGLEWIGVIDPETGDTAYNQKFKDKATLTADKASSTAYMELSSLTSEDSAVYYCMGYSDYWGQGTTLTVSS
VL: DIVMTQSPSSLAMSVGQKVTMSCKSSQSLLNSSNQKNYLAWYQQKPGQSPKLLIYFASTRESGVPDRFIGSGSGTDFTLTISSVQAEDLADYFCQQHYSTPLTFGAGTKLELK
notes: as for B2
B11: 3C3 anti-KAAG1 antibody (antibody, V domains shown)
VH: EVQLQQSVAEVVRPGASVTLSCKASGYTFTDYEIHWVKQTPVHGLEWIGVIDPETGVTAYNQRFRDKATLTTDKSSSTAYMELSSLTSEDSAVYFCMGYSDYWGQGTTLTVSS
VL: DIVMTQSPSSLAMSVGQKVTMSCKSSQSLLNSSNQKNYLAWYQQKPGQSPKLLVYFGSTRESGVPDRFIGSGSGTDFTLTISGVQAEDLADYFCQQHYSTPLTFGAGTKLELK
notes: as for B2
B12: 3G8 anti-KAAG1 antibody (antibody, V domains shown)
VH: QVQLKQSGAELVRPGASVTLSCKASGYTFTDYEVHWVKQTPVHGLEWIGVIDPATGDTAYNQKFKGKATLTADKSSSTAYMEVSSLTSEDSAVYYCMGYSDYWGQGTTLTVSS
VL: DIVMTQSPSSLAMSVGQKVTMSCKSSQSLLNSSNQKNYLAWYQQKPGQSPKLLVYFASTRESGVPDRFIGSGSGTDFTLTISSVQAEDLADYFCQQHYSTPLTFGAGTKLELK
notes: as for B2
B13: 3B11 anti-KAAG1 antibody (antibody, V domains shown)
VH: EVQLQQSVAELVRPGASVTLSCKASGYTFTDYEMHWVKQTPVRGLEWIGVIDPATGDTAYNQKFKGKATLTADKSSSAAFMELSSLTSEDSAVYYCMGYSDYWGQGTTLTVSS
VL: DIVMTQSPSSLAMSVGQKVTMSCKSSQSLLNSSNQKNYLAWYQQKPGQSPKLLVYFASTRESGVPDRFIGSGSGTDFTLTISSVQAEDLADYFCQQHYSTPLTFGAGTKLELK
notes: as for B2
B14: 3E12 anti-KAAG1 antibody (antibody, V domains shown)
VH: QVQLQQSEAELVKPGASVKLSCKASGYTFTDYEIHWVKQTPVHGLEWIGVIDPETGDTAYNQKFKGKATLTADKSSSTAYMELSRLTSEDSAVYYCMGHSDYWGQGTTLTVSS
VL: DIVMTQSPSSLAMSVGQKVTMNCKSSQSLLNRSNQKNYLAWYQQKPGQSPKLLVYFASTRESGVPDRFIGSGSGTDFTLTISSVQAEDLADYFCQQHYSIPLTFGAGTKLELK
notes: as for B2
B15: 3F10 anti-KAAG1 antibody (antibody, V domains shown)
VH: EVQLQQSVAELVRPGAPVTLSCKASGYTFTDYEVHWVKQTPVHGLEWIGVIDPETGATAYNQKFKGKATLTADKSSSAAYMELSRLTSEDSAVYYCMSYSDYWGQGTTLTVSS
VL: DIVMTQSPSSLTMSVGQKVTMSCKSSQSLLNTSNQLNYLAWYQQKPGQSPKLLVYFASTTESGVPDRFIGSGSGTDFTLTISSVQAEDLADYFCQQHYSTPLTFGAGTKLELK
notes: as for B2
B16: 3E9 anti-KAAG1 antibody (antibody, V domains shown)
VH: EVQLQQSGAELVRPGASATLSCKASGYTFTDYEMHWVKQTPVHGLEWIGVIDPETGSTAYNQKFKGKATLTADKSSSTAYMELSSLTSEDSAVYYCMGYADYWGQGTTLTVSS
VL: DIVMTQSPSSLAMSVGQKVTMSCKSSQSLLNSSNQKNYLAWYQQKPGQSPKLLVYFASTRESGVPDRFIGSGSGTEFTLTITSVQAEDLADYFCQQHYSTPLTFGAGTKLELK
notes: as for B2
B17: 3B1 anti-KAAG1 antibody (antibody, V domains shown)
VH: QVQLQQPGAELVRPGASVTLSCKASGYTFTDYEIHWVKQTPVHGLEWIGVIDPETGGTAYNQKFKGKATLTTDKSSSTAYMELRSLTSEDSAVYYCMGYSDYWGQGTTLTVSS
VL: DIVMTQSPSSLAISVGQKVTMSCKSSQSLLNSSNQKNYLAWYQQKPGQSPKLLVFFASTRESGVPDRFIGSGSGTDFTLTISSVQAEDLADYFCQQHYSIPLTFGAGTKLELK
notes: as for B2
B18: 3B8 anti-KAAG1 antibody (antibody, V domains shown)
VH: EVQLQQSGAELVRPGASVTLSCKASGYTFTDYEIHWVKQTPVHGLEWIGVIDPETGDTAYNQNFTGKATLTADKSSSTAYMELSSLTSEDSAVYYCMGYADYWGQGTTLTVSS
VL: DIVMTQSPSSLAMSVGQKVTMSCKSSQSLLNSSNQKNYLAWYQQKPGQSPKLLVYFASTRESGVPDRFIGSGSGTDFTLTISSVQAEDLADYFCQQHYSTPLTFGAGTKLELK
notes: as for B2
B19: 3G5 anti-KAAG1 antibody (antibody, V domains shown)
VH: QVQLQQPGAELVRPGASVTLSCKASGYTFTDYEIHWVKQTPVHGLEWIGVLDPGTGRTAYNQKFKDKATLSADKSSSTAYMELSSLTSEDSAVYYCMSYSDYWGPGTTLTVSS
VL: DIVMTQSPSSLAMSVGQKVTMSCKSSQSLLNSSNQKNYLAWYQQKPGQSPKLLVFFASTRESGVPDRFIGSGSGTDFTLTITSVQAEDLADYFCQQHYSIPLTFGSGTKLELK
notes: as for B2
B20: 3F4 anti-KAAG1 antibody (antibody, V domains shown)
VH: EVQLQQSGAELVRPGASVTLSCKASGYTFTDYEIHWVKQTPVHGLEWIGVIDPETGSTAYNQKFKGKATLTADKASSTAYMELSSLTSEDSAVYYCMGYSDYWGQGTTLTVSS
VL: DIVMTQSPSSLTVTAGEKVTMSCKSSQSLLNTSNQKNYLAWYQQKPGQSPKLLVYFASTRASGVPDRFIGSGSGTDFTLTISSVQAEDLADYFCQQHYSTPLTFGAGTKLELK
notes: as for B2
B21: 4A2 anti-KAAG1 antibody (antibody, V domains shown)
VH: QVKLQQSGTELVRPGASVTLSCKASGYKFTDYEMHWVKQTPVHGLEWIGGIDPETGGTAYNQKFKGKAILTADKSSTTAYMELRSLTSEDSAVYYCISYAMDYWGQGTSVTVSS
VL: DIVMTQSPSSLAMSVGQKVTMNCKSSQSLLNNSNQKNYLAWYQQKPGQSPKLLLYFASTRESGVPDRFIGSGSGTYFTLTISSVQAEDLADYFCQQHYSTPLTFGAGTKLDLK
notes: as for B2
B22: 3E6 anti-KAAG1 antibody (antibody, V domains shown)
VH: QVQLQQSGAELVRPGASVTLSCKASGYTFSDYEMHWVKQTPVHGLEWIGGIDPETGDTVYNQKFKGKATLTADKSSSTAYMELSSLTSEDSAVYYCISYAMDYWGQGTSVTVSS
VL: DIQMTQSPSSMYASLGERVTLTCKASQDIHNYLNWFQQKPGKSPKTLIHRANRLVAGVPSRFSGSGSGQDYSLTISSLEYEDLGIYYCLQYDAFPLTFGAGTKLELK
notes: as for B2

This note sets out measurements from patent publication US20190119366A1 (ADC THERAPEUTICS, published 2019).

The first assay concerns the target T1, recombinant human KAAG1 (Kidney …). Briefly: SPR (BioRad ProteOn XPR36): antibody captured on an anti-human IgG Fc surface, KAAG1 injected as analyte, 1:1 Langmuir fit. As for the experimental part: Immediately after the activation, a 13 μg/mL solution of anti-human IgG Fc fragment specific in 10 mM NaOAc pH 4.5 was injected in the analyte direction at a flow rate of 25 μL/min until approximately 8000 resonance units (RUs) were immobilized. Remaining active groups were quenched by a 300 s injection of 1M ethanolamine at 30 μL/min in the analyte direction, and this also ensures mock-activated interspots are created for blank referencing. The screening of the 3A4 variants for binding to KAAG1 occurred in two steps: an indirect capture of 3A4 variants from cell supernatant onto the anti-human IgG Fc fragment specific surface in the ligand direction(vertical) followed by a KAAG1 injection in the analyte direction. Firstly, one buffer injection for 30 s at 100 uL/min in the ligand direction was used to stabilize the baseline. […] Four to five 3A4 variants along with wild-type 3A4 were simultaneously injected in individual ligand channels for 240 s at flow 25 μL/min. […] The first ligand channel was left empty to use as a blank control if required. This 3A4 capture step was immediately followed by two buffer injections in the analyte direction to stabilize the baseline, and then the gel filtration purified KAAG1 was injected. For a typical screen, five KAAG1 concentrations (8, 2.66, 0.89, 0.29, and 0.098 nM) and buffer control were simultaneously injected in individual analyte channels at 50 μL/min for 120 s with a 600s dissociation phase, resulting in a set of binding sensorgrams with a buffer reference for each of the captured 3A4 variants. The anti-human IgG Fc fragment specific—3A4 complexes were regenerated by a 18 s pulse of 0.85% phosphoric acid for 18 s at 100 μL/min to prepare the anti-human IgG Fc fragment specific surface for the next injection cycle. Sensorgrams were aligned and double-referenced using the buffer blank injection and interspots, and the resulting sensorgrams were analyzed using ProteOn Manager software v3.0.
Take B1: the Kd stood at 0.016 nM, the koff was determined as 0.000121 s⁻¹ and the kon came out at 7.72e+06 M⁻¹ s⁻¹.

For another assay the target is unchanged. Nature of the assay: not described; list of antibodies generated.
Consider B2, for which the binding result was “binds”.

Regarding B3, the binding result is given as “binds”.

Consider B4, for which the binding result is “binds”.

With B5, the binding result was “binds”.

As for B6, the binding result is “binds”.

In the case of B7, the binding result is listed as “binds”.

With B8, the binding result is “binds”.

As for B9, the binding result was “binds”.

As for B10, the binding result is listed as “binds”.

On to B11, for which the binding result is listed as “binds”.

On to B12, for which the binding result is “binds”.

In the case of B13, the binding result is “binds”.

As for B14, the binding result is given as “binds”.

Take B15: the binding result is “binds”.

B16: the binding result is “binds”.

For the molecule B17, the binding result is on record as “binds”.

For B18, the binding result is reported as “binds”.

Take B19: the binding result is “binds”.

For the molecule B20, the binding result is listed as “binds”.

Take B21: the binding result is reported as “binds”.

Take B22: the binding result was “binds”.
